According to EP4688000A1 (dated 2026):

Columns and labels:
[1] = biological target: T1, human integrin α6β1 on CHO-S cells (CHO-S-human ITGA6B1-#24) (human, UniProt P05556 21-798; P23229 24-1130); assay: flow cytometry on CHO-S-human ITGA6B1-#24 cells
T1 construct: whole, on cells; also called human ITGB1

[2] = biological target: T2, mouse integrin α6β4 on cells (CHO-S-murine ITGA6B4-#12; 4T1) (mouse, UniProt A2A863 29-1818; Q61739 24-1091); assay: flow cytometry on 4T1 and CHO-S-murine ITGA6B4-#12 cells
T2 construct: whole, on cells; also called mouse ITGB4; CHO-S-mouse ITGB4
T2 sequence (A2A863 29-1818, chain 1 of 2): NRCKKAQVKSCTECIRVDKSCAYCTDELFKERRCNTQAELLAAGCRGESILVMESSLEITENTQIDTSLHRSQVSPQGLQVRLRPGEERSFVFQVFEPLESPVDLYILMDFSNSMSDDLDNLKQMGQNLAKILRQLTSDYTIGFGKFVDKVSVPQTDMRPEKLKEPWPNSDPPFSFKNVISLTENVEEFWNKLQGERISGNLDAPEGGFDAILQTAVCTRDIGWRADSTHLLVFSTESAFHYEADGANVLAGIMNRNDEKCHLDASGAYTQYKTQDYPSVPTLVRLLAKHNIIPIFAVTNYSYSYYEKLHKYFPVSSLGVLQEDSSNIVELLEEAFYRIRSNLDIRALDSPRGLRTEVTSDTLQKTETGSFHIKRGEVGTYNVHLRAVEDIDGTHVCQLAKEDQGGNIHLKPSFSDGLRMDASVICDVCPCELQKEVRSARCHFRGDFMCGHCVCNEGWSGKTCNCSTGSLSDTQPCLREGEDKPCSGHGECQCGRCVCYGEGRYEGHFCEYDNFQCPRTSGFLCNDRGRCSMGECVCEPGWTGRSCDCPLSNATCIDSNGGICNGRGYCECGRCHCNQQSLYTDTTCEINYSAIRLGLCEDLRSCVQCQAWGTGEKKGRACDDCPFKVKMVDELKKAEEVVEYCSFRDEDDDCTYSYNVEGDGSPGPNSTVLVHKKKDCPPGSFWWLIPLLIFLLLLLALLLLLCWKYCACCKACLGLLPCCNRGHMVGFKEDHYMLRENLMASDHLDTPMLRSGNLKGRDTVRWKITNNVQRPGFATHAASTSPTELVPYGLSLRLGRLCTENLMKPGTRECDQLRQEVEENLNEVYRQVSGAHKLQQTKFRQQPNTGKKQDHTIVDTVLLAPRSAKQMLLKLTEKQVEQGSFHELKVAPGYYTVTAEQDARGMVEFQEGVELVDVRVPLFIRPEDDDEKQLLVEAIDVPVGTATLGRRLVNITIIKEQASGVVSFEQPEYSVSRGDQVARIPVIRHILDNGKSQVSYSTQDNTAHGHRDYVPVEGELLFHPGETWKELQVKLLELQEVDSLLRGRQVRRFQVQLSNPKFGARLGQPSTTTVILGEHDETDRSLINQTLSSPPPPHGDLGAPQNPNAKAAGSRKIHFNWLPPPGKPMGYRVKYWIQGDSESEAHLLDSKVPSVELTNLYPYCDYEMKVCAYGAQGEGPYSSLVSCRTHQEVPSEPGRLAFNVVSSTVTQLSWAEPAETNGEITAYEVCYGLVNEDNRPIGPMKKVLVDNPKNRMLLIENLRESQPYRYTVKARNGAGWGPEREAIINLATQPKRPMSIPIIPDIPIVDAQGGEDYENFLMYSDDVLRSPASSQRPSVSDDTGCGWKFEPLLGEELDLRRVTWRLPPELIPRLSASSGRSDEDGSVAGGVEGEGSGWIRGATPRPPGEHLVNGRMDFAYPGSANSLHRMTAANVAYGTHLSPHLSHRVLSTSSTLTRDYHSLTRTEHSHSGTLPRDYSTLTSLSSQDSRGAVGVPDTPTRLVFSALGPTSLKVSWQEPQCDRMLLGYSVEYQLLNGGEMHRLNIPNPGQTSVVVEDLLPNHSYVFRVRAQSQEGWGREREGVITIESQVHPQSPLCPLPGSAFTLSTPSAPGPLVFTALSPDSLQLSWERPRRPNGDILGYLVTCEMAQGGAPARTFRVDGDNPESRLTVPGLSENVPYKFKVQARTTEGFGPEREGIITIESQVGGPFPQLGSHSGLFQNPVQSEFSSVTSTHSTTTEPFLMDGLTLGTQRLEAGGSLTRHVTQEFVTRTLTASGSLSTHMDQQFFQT
T2 sequence (Q61739 24-1091, chain 2 of 2): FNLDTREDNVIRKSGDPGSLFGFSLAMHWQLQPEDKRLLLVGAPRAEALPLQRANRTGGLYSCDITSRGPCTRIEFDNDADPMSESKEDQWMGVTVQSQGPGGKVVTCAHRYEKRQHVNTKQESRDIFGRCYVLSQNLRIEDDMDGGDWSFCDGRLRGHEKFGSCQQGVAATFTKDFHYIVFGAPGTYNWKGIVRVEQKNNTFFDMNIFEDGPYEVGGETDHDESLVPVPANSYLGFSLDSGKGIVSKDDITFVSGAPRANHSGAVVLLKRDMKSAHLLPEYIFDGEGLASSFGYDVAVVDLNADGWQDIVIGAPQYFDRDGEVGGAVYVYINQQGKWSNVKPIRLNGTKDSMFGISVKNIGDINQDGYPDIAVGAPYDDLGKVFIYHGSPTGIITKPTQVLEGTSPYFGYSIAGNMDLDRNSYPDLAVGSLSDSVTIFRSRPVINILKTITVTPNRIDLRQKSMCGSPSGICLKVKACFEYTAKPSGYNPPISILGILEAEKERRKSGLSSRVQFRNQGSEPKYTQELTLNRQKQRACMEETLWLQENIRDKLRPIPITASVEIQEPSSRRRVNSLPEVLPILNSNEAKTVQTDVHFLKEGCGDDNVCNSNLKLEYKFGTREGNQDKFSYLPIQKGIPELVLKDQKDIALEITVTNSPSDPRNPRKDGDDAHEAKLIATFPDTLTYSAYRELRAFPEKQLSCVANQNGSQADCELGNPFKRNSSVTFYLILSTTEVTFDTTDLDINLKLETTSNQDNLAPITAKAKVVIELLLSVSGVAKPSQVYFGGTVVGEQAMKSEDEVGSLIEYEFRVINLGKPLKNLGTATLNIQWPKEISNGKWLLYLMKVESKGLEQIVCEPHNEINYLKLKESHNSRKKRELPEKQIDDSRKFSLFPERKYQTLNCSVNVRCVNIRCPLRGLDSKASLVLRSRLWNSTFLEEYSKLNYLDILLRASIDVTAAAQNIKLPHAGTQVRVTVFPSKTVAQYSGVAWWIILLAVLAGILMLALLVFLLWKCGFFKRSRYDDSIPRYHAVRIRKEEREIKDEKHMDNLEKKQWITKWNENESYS

T1 sequence (P05556 21-798, chain 1 of 2): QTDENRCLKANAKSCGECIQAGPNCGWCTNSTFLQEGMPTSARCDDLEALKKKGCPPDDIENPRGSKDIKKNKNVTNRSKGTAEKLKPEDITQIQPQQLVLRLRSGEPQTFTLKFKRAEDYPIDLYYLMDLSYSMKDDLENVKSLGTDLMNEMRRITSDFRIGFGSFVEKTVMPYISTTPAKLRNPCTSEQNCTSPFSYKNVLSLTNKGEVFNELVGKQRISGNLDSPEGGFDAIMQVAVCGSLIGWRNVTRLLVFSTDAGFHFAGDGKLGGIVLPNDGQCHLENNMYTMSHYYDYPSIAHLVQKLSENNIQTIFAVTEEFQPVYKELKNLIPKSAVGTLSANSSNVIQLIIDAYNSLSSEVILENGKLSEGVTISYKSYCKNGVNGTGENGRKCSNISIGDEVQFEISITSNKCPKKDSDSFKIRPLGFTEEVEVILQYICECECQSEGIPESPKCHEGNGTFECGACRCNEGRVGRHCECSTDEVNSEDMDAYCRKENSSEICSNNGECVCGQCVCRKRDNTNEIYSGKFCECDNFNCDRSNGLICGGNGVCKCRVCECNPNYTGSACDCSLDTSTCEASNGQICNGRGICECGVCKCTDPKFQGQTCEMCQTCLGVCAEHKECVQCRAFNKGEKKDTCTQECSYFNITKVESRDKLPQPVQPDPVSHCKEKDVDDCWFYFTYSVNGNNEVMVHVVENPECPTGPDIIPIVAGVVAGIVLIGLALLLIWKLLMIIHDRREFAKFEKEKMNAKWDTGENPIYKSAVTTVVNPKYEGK
T1 sequence (P23229 24-1130, chain 2 of 2): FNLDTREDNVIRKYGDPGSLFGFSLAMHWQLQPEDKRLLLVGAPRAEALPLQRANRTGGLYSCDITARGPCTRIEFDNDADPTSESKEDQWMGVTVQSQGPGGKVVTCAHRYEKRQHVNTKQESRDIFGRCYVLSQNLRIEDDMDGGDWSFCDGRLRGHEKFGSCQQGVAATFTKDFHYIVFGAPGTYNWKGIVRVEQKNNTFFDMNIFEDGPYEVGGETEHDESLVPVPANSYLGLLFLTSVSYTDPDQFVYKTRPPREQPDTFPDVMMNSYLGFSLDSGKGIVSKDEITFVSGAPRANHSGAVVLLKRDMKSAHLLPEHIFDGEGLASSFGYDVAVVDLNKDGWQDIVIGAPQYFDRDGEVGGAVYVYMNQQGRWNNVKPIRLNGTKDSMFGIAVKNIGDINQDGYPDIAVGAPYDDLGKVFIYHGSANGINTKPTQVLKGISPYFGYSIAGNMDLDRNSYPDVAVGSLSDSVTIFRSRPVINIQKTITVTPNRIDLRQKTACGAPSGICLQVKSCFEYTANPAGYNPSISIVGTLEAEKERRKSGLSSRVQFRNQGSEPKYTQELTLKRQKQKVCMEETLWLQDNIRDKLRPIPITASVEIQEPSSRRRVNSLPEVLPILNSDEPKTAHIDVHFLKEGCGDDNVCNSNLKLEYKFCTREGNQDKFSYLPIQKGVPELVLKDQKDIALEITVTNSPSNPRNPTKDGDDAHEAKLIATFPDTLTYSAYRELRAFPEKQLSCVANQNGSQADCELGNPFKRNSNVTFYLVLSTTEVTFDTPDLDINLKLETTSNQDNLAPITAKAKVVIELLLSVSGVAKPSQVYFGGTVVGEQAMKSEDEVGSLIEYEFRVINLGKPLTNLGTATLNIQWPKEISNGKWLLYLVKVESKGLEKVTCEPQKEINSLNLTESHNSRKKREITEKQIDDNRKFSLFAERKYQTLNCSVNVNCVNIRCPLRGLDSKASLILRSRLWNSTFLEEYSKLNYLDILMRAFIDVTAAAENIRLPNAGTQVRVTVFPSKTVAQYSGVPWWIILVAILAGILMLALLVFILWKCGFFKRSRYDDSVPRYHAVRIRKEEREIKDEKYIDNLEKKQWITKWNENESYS

binding result [1]: no binding
binding result [2]: no binding
B1: anti-ITGB4 antibody 008 (parental clone) (antibody, V domains shown)
VH: QVQLKQSGPSLVQPSQSLSITCTVSGFSLTSYGVHWFRQSPGKGLEWLGVIWRGGNTDYNAAFMSRLSITKDNSKSQVFFKMNSLQPDDTAIYYCVKNYRFGGSAYWGQGTLVTVSA
VL: DIQMTQTTSSLSASLGDRVTISCRASQDISNHLNWYQQKPDGTVKLLIYYTSTLHSGVPSRFSGSGSGTDYSLTISNLEPEDIATYYCQQDLNLPWTFGGGTKLEIK
notes: In the assays it was captured on anti-human IgG Fc sensors and detected with anti-human IgG, so the tested form carries a human Fc; also called 008 clone
